For the assay, the target named is T1, LTα1β2 (human, UniProt P01374).
T1 chain 1: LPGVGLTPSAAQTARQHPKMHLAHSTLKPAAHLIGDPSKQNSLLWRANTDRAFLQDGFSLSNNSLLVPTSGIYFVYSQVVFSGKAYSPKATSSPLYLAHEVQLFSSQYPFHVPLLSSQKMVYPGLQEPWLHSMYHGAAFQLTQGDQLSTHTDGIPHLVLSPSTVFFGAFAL
T1 chain 2: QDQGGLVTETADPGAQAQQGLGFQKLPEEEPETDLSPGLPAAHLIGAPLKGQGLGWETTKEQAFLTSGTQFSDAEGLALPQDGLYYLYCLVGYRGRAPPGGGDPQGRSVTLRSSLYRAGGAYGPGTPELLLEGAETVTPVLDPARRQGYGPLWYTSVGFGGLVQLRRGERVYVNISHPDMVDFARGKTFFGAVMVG
The experiment in a line: ELISA.

B1: TNFRII.Fc (protein)
chain: LPAQVAFTPYAPEPGSTCRLREYYDQTAQMCCSKCSPGQHAKVFCTKTSDTVCDSCEDSTYTQLWNWVPECLSCGSRCSSDQVETQACTREQNRICTCRPGWYCALSKQEGCRLCAPLRKCRPGFGVARPGTETSDVVCKPCAPGTFSNTTSSTDICRPHQICNVVAIPGNASMDAVCTSTSPTRSMAPGAVHLPQPVSTRSQHTQPTPEPSTAPSTSFLLPMGPSPPAEGSTGD
For B1, the binding result is on record as “no binding”.

The record behind these values is US8541552.
